# Assay results reported in patent US20240343803A1 (SHANDONG SIMCERE BIOPHARMACEUTICAL, published 2024).
# Values joined by “and” are separate entries in the source; they are usually repeats but may differ in a detail not shown here. Identical values can stand only once.
# B1: TIGIT-005-H2L1 (antibody, V domains shown)
# VH: EVQLVQSGAEVKKPGASVKVSCKASGYAFTNYLIEWVRQAPGQRLEWMGVINPGSGGTNYKEKFKGRVTITADKSSSTAYMELSSLRSEDTAVYYCARGEYFFFDYWGQGTTVTVSS
# VL: DIVMTQSPDSLAVSLGERATINCKASQHVSNGVAWYQHKPGQSPKLLIYSASYRYTGVPDRFSGSGSGTDFTLTISSLQAEDVAVYYCQQHYNTPHTFGGGTKVEIK
# notes: Humanized anti-TIGIT antibody
# B2: PVRIG-A105-H1 (VHH)
# VHH: EVQLVESGGGLVQPGGSLRLSCAASGRTFDRHTMSWFRQAPGKEREFVATASRIPGDTYYVDSVKGRFTISRDNAKNSLYLQMNSLRAEDTAVYYCAATSAYCSEVDCYEKGSWYDNWGQGTMVTVSS
# notes: humanized VHH; also called A105.VH1
# Tests used:
# [1] = biological target: T1, Fusion protein of extracellular domain of human TIGIT and human IgG1 Fc fragment (human TIGIT ECD-hFc) (human); test: blocking of TIGIT ECD-hFc binding to CHO-K1 CD155 cells
# T1 construct: The entry includes the signal peptide (limits not recoverable) and the human IgG1 Fc
# Procedure, shortened: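 Inhibition was expressed as IC50 values derived from the inhibition curves of a cell-based ELISA. CHO-K1 CD155 cells were cultured overnight, fixed, and blocked with 5% skim milk-PBS. Antibodies were first premixed for 0.5 h with human TIGIT ECD-hFc at a working concentration of 30 ng/mL, and the mixture was then added to the cells for 1.5-2 h at 37° C. Bound TIGIT was detected with HRP secondary antibody (1:5000, 37° C, 1 h) and TMB, and read as OD450 nm.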
# [2] = biological target: T2, Fusion protein of extracellular domain of human TIGIT and His-tag (human TIGIT ECD-his) (human); test: BIAcore (second series)
# T2 chain: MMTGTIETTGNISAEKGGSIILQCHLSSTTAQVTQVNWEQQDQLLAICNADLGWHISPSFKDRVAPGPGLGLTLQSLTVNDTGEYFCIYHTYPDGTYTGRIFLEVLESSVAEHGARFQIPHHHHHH
# [3] = biological target: T3, Fusion protein of extracellular domain of cynomolgus monkey TIGIT and mouse IgG2a Fc fragment (cynomolgus … (cynomolgus monkey)); test: ELISA, cynomolgus monkey TIGIT ECD-mFc
# T3 construct: The entry includes the signal peptide (limits not recoverable) and the mouse IgG2a Fc
# Procedure, shortened: (§1)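 Antibodies diluted to 13 nM in 1% BSA, then 3-fold serial dilution for 12 concentrations, incubated with milk-blocked plates at 37° C for 1.5-2 h. Bound antibody detected with HRP-labelled secondary antibody (1:5000, 37° C, 1 h) and TMB, stopped with 1M HCl; OD450 nm read.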
# [4] = biological target: T4, Full-length human TIGIT on CHO-K1 cells (CHO-K1 human TIGIT) (human, UniProt Q495A1 22-244); test: cell binding, CHO-K1 human TIGIT high expression strain
# T4 construct: NCBI XP_024309156.1; the entry includes the signal peptide (limits not recoverable); The strain (high, medium, low) is named under assay; also called high expression strain 1D2; medium expression strain 2D10
# T4 sequence: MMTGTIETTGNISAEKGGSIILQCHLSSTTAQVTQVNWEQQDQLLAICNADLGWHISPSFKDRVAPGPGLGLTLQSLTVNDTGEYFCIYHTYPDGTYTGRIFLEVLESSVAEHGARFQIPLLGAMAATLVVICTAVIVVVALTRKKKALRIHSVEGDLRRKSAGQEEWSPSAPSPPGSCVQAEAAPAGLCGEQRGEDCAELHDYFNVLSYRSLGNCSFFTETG
# Procedure, shortened: (§2)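 Binding was measured by flow cytometry after a 60-minute, 4° C incubation of the antibodies with 2×10⁵ CHO-K1 cells displaying full-length human or cynomolgus monkey TIGIT. Antibody titration: 12 points, threefold serial dilution from 80 nM, in 1% BSA-PBS.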
# [5] = biological target: T5, Fusion protein of extracellular domain of human TIGIT and mouse IgG2a Fc fragment (human TIGIT ECD-mFc) (human); test: ELISA, human TIGIT ECD-mFc
# T5 construct: The entry includes the signal peptide (limits not recoverable) and the mouse IgG2a Fc
# T5 chain: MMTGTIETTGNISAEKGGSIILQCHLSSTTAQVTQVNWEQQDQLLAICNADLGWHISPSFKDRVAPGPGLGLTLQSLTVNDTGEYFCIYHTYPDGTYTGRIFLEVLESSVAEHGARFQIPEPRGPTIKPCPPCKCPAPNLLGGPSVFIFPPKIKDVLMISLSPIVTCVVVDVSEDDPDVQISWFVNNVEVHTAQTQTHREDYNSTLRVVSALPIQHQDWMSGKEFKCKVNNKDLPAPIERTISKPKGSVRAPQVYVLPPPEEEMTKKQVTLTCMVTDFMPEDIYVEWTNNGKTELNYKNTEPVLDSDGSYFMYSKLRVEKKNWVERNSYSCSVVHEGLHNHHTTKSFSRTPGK
# Procedure, shortened: as §1
# [6] = biological target: T2, Fusion protein of extracellular domain …; test: BIAcore (second series); serves as reference of r34-r37
# [7] = biological target: T2, Fusion protein of extracellular domain …; test: BIAcore
# [8] = biological target: T2, Fusion protein of extracellular domain …; test: BIAcore; KD ratio to TIGIT-CHI-005
# [9] = biological target: T6, Full-length cynomolgus monkey TIGIT on CHO-K1 cells (CHO-K1 cynomolgus monkey TIGIT) (cynomolgus monkey); test: cell binding, CHO-K1 cynomolgus monkey TIGIT
# T6 construct: NCBI XP_015300911.1
# T6 sequence (chain, as listed by the source limits assumed): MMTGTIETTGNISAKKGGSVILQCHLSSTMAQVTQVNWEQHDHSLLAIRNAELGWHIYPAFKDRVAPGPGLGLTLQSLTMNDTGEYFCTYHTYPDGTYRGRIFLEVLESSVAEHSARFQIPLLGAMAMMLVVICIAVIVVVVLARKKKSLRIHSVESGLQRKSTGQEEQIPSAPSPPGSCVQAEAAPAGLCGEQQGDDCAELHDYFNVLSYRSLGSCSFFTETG
# Procedure, shortened: as §2
# [10] = biological target: T7, human PVRIG on FlpinCHO-PVRIG cells (human, UniProt Q6DKI7 41-326); test: FACS, FlpinCHO-hPVRIG cells
# T7 construct: whole, on cells; also called FlpinCHO-hPVRIG; FlpinCHO-human PVRIG
# T7 sequence (looked up): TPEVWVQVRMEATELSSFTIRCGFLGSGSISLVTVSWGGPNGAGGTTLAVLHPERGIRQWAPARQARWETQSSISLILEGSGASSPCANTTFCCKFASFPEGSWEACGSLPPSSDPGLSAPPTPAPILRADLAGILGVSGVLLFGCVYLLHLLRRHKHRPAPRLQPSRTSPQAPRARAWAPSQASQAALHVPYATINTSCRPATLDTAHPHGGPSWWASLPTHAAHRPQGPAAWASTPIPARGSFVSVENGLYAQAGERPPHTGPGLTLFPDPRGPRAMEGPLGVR
# Method: (§3) CHO-K1 stable cells ([…]-61™) transfected with human or cynomolgus monkey PVRIG high expression plasmids were named FlpinCHO-hPVRIG and FlpinCHO-cynoPVRIG. […] After discarding the cell culture medium, the cells were rinsed with PBS and digested for 8-10 minutes by adding 1 mL Versene (Gibico, 15040-066). The Ham's F12 (Gibico, 21127-022) complete medium containing 10% FBS was then added to terminate the digestion and acquire cell suspension. After cell counting, an appropriate amount of cell suspension was centrifuged at 350×g to remove the supernatant, washed twice with PBS, stained with Zombie violet (Biolegend, 423114) and incubated at room temperature for 20 minutes. After incubation, the cells were added with staining buffer (2% FBS+PBS) to stop staining, centrifuged at 350×g to remove the supernatant, washed twice and resuspended with staining buffer to a density of 2×10⁶ cells/mL. The cells were plated into a 96-well plate (50 μL of cell suspension per well) for further use. The antibodies were diluted from the highest concentration of 46 nM (two-fold concentration) with staining buffer by 3.3-fold serial dilution. The diluted antibodies were added to the well containing 50 μL of cell suspension. […] After staining, the cells were washed twice with staining buffer, finally resuspended with 200 μL staining buffer and analyzed by flow cytometry (BD, Canto II).
# [11] = biological target: T8, cynomolgus monkey PVRIG on FlpinCHO-cyno PVRIG cells (cynomolgus monkey, UniProt A0A2K5WVV8 41-322); test: FACS, FlpinCHO cynomolgus monkey PVRIG cells
# T8 construct: whole, on cells; also called FlpinCHO-cynomolgus monkey PVRIG
# T8 sequence: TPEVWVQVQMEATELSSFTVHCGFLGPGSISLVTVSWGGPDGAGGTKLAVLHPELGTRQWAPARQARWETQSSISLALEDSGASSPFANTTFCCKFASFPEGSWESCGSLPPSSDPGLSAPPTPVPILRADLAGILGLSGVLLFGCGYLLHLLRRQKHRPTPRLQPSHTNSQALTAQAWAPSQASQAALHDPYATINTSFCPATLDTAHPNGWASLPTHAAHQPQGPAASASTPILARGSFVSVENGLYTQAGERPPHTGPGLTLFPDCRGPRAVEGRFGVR
# Method: as §3
# [12] = biological target: T9, human PVRIG-mFc protein (Acro, PVG-H5253) (human, UniProt Q6DKI7 41-171, limits assumed); test: competition FACS; blocked: PVRIG-mFc binding to CHO-K1 CD112 cells
# T9 construct: bought reagent; also called PVRIG-ECD-mFc
# T9 sequence (looked up): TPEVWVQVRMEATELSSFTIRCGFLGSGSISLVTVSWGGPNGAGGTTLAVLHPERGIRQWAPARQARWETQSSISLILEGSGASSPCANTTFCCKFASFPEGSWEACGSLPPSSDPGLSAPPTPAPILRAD
# Method: The Ham's F12 (Gibico, 21127-022) complete medium containing 10% FBS was then added to stop the digestion and acquire cell suspension. After counting with a cell counter (Beckman Coulter, Vi-CELL), an appropriate amount of cell suspension was centrifuged at 350×g to remove the supernatant, washed twice with PBS, stained with Zombie violet (Biolegend, 423114) and incubated at room temperature for 20 minutes. After incubation, the cells were added with staining buffer (2% FBS+PBS) to stop staining, centrifuged at 350×g to remove the supernatant, washed twice and resuspended with staining buffer to a density of 2×10⁶ cells/mL. The cells were plated into a 96-well plate (50 μL of cell suspension per well) for further use. A working solution of human PVRIG-mFc protein (Acro, PVG-H5253) prepared with staining buffer, 1 μg/mL (four-fold concentration), was added into a 96-well plate (50 μL PVRIG-mFc working solution per well). […] The diluted antibodies were added to the well containing 50 μL of PVRIG-mFc. The plate was placed on a microplate shaker at 400 rpm for 1 minute to fully mix the antibodies and PVRIG-mFc proteins, and then incubated at 4° C. for 30 minutes. After the incubation, the cell suspension prepared above (100 μL) was added into the wells, gently mixed with the pipette tip and incubated at 4° C. for 30 minutes. After the incubation, the cells were washed twice with staining buffer (200 μL per well) and centrifuged at 350×g for 5 minutes to discard the supernatant. The PE goat anti-mouse IgG Fc antibody (Biolegend, 405337) was diluted 250 times with staining buffer, added into the washed wells (100 μL per well), mixed well, and stained at 4° C. for 30 minutes. After staining, the cells were washed twice with staining buffer, finally resuspended with 200 μL staining buffer and analyzed by flow cytometry (BD, Canto II). The weaker the fluorescence signal, the stronger the ability of the antibodies blocks the binding of CHO-K1 human CD112 cells to the PVRIG-mFc protein.
Binder,IC50 [1],Kd [2] [nM],koff [2] [s⁻¹],kon [2] [M⁻¹ s⁻¹],EC50 [3],EC50 [4],EC50 [5],Fold change vs chimeric antibodies (KD) [6] [fold],Kd [7] [nM],koff [7] [s⁻¹],kon [7] [M⁻¹ s⁻¹],Fold change vs chimeric antibodies (KD) [8] [fold],EC50 [9],EC50 (read off the curve) [10] [nM],EC50 (read off the curve) [11] [nM],IC50 (read off the curve) [12] [nM]
B1,0.321 nM and 0.389 nM,0.0742,0.000263,3.54e+06,0.0145 nM and 0.0393 nM,0.0281 nM and 0.0272 nM,0.0141 nM and 0.0247 nM,1,0.0378,0.000161,4.26e+06,1.37,0.0199 nM and 0.047 nM,,,
B2,,,,,,,,,,,,,,~0.5,~0.4,~1
